Data from patent US20240052029A1 (BIOHENG THERAPEUTICS, published 2024).
Where a chain is given by its changes, count along the chain named. Each block holds one binder with its values, some of them ahead of it.

Target: T1, ROR1-hFc (Acrobio brand, Cat. No. R01-H5250) protein (UniProt Q01973 30-403)
T1 construct: Bought reagent; not shown: hFc (human Fc, detected with anti-human IgG Fc)
Test: flow cytometry: CAR-T cells stained with ROR1-hFc, then PE anti-human IgG Fc
Procedure: After culturing at 37° C. and 5% CO₂ for 11 days, the above CAR-T cells, ROR1-4 CAR-T-2 cells (replacing the CD8α hinge region in the ROR1-4 CAR-T cells with the IgG4 hinge region) and Wild-type T cells (NT, used as negative control) were incubated with ROR1-hFc (Acrobio brand, Cat. No. R01-H5250) protein for 45 minutes, and after washing, PE anti-human IgG Fc Antibody (Biolegend brand, Cat. No. 410708) was added to incubate for 30 minutes. The expression level of the anti-ROR1 single chain antibody on the CAR-T cells was detected by flow cytometry, and the results are shown in FIG. 4.

T1 sequence (Q01973 30-403): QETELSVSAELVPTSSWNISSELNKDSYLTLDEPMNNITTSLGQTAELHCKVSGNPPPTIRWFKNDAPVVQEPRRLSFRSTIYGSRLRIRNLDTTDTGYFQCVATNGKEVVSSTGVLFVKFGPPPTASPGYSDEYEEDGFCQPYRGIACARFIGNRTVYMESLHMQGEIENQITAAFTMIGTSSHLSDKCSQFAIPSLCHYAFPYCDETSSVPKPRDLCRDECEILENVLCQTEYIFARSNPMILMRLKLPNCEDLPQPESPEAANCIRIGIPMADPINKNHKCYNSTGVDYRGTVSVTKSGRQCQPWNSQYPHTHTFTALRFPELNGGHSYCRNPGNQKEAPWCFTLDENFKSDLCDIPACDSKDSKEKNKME

B1: 6V8 anti-ROR1 humanized scFv, as chimeric antigen receptor on CAR-T cells (scFv)
scFv: ETTLTQSPATLSVSPGEKVIIRCITSTDIDEDMNWYQQKPGQPPKLLISEGNTLRPGVPSRFSGSGSGTDFTLTISSLQPEDVATYYCLQSNNMPLTFGAGTKLELKGGGGSGGGGSGGGGSQVQLQESGPGLVKPSQTLSLTCTVTAYSITSDYAWNWIRQFPGNKLEWMGYISYSGFTRYNPSLKSRISITRDTSKNQFFLKLNFVTTEDTATYYCARGEITYYFDYWGQGTTLTVSSESKYGPPCPPCPIYIWAPLAGTCGVLLLSLVITLYCKRGRKKLLYIFKQPFMRPVQTTQEEDGCSCRFPEEEEGGCELRVKFSRSADAPAYQQGQNQLYNELNLGRREEYDVLDKRRGRDPEMGGKPRRKNPQEGLYNELQKDKMAEAYSEIGMKGERRRGKGHDGLYQGLSTATKDTYDALHMQALPPR
notes: Humanized from murine ROR1-4
- binding result: binds

B2: 6V11 anti-ROR1 humanized scFv, as chimeric antigen receptor on CAR-T cells (scFv)
scFv: B1 scFv with K18R, V19A, T147S, M171I, F201Y, F202Y, K204Q, F207S
notes: Humanized from murine ROR1-4
- binding result: binds

B3: 6V13 anti-ROR1 humanized scFv, as chimeric antigen receptor on CAR-T cells (scFv)
scFv: B1 scFv with G64S, T147S, M171I, F201Y, F202Y, K204Q, F207S
notes: Humanized from murine ROR1-4
- binding result: binds

Next, values leading:

- binding result: binds
B4: 6V10 anti-ROR1 humanized scFv, as chimeric antigen receptor on CAR-T cells (scFv)
scFv: B1 scFv with K18R, V19A
notes: Humanized from murine ROR1-4

- binding result: binds
B5: 6V9 anti-ROR1 humanized scFv, as chimeric antigen receptor on CAR-T cells (scFv)
scFv: B1 scFv with T147S, M171I, F201Y, F202Y, K204Q, F207S
notes: Humanized from murine ROR1-4

- binding result: binds
B6: 6V12 anti-ROR1 humanized scFv, as chimeric antigen receptor on CAR-T cells (scFv)
scFv: B1 scFv with G64S
notes: Humanized from murine ROR1-4
